Positions count from the first letter of the chain named. In names and notes the source's numbering stands.
B1: GLS3000 R29Y one-arm antibody (antibody, human IgG1, kappa, L234A L235A, N297A, name in Kabat numbering)
heavy: QVQLVESGGGVVQPGRSLRLSCAASGFTFSNAWMHWVRQAPGKGLEWVAQIKAKSNNYATYYAESVKGRFTISRDDSKNSLYLQMNSLKTEDTAVYYCRYVHYGAYYGVDAWGQGTTVTVSSASTKGPSVFPLAPSSKSTSGGTAALGCLVKDYFPEPVTVSWNSGALTSGVHTFPAVLQSSGLYSLSSVVTVPSSSLGTQTYICNVNHKPSNTKVDKKVEPKSCDKTHTCPPCPAPEAAGGPSVFLFPPKPKDTLMISRTPEVTCVVVDVSHEDPEVKFNWYVDGVEVHNAKTKPREEQYASTYRVVSVLTVLHQDWLNGKEYKCKVSNKALPAPIEKTISKAKGQPREPQVYTLPPSRCELTKNQVSLSCAVKGFYPSDIAVEWESNGQPENNYKTTPPVLDSDGSFFLVSKLTVDKSRWQQGNVFSCSVMHEALHNHYTQKSLSLSPDYKDDDDK
chain: EPKSSDKTHTCPPCPAPELLGGPSVFLFPPKPKDTLMISRTPEVTCVVVDVSHEDPEVKFNWYVDGVEVHNAKTKPREEQYNSTYRVVSVLTVLHQDWLNGKEYKCKVSNKALPAPIEKTISKAKGQPREPQVCTLPPSRDELTKNQVSLWCLVKGFYPSDIAVEWESNGQPENNYKTTPPVLDSDGSFFLYSKLTVDKSRWQQGNVFSCSVMHEALHNRYTQKSLSLSP
light: DIVMTQSPLSLPVTPGEPASISCRSSQSLVHSNYNTYLHWYQQKPGQAPRLLIYKVSNRFSGVPDRFSGSGSGTDFTLKISRVEAEDVGVYYCGQGTQVPYTFGQGTKLEIKRTVAAPSVFIFPPSDEQLKSGTASVVCLLNNFYPREAKVQWKVDNALQSGNSQESVTEQDSKDSTYSLSSTLTLSKADYEKHKVYACEVTHQGLSSPVTKSFNRGEC
B2: GLS3000 R54G one-arm antibody (antibody, human IgG1, kappa, L234A L235A, N297A, name in Kabat numbering)
heavy: B1 heavy
chain: B1 chain
light: B1 light with Y34R, R59G
B3: GLS3000 S25L one-arm antibody (antibody, human IgG1, kappa, L234A L235A, N297A, name in Kabat numbering)
heavy: B1 heavy
chain: B1 chain
light: B1 light with S25L, Y34R
B4: GLS3000 R77S one-arm antibody (antibody, human IgG1, kappa, L234A L235A, N297A, name in Kabat numbering)
heavy: B1 heavy
chain: B1 chain
light: B1 light with Y34R, R82S
B5: GLS3000 R54D one-arm antibody (antibody, human IgG1, kappa, L234A L235A, N297A, name in Kabat numbering)
heavy: B1 heavy
chain: B1 chain
light: B1 light with Y34R, R59D
B6: GLS3000 S25T one-arm antibody (antibody, human IgG1, kappa, L234A L235A, N297A, name in Kabat numbering)
heavy: B1 heavy
chain: B1 chain
light: B1 light with S25T, Y34R
B7: GLS3000 R54T one-arm antibody (antibody, human IgG1, kappa, L234A L235A, N297A, name in Kabat numbering)
heavy: B1 heavy
chain: B1 chain
light: B1 light with Y34R, R59T
B8: GLS3000 S26P one-arm antibody (antibody, human IgG1, kappa, L234A L235A, N297A, name in Kabat numbering)
heavy: B1 heavy
chain: B1 chain
light: B1 light with S26P, Y34R
B9: GLS3000 S25P one-arm antibody (antibody, human IgG1, kappa, L234A L235A, N297A, name in Kabat numbering)
heavy: B1 heavy
chain: B1 chain
light: B1 light with S25P, Y34R
B10: GLS3000 R54S one-arm antibody (antibody, human IgG1, kappa, L234A L235A, N297A, name in Kabat numbering)
heavy: B1 heavy
chain: B1 chain
light: B1 light with Y34R, R59S
B11: GLS3000 R54A one-arm antibody (antibody, human IgG1, kappa, L234A L235A, N297A, name in Kabat numbering)
heavy: B1 heavy
chain: B1 chain
light: B1 light with Y34R, R59A
B12: GLS3000 S26D one-arm antibody (antibody, human IgG1, kappa, L234A L235A, N297A, name in Kabat numbering)
heavy: B1 heavy
chain: B1 chain
light: B1 light with S26D, Y34R
B13: GLS3000 R54Q one-arm antibody (antibody, human IgG1, kappa, L234A L235A, N297A, name in Kabat numbering)
heavy: B1 heavy
chain: B1 chain
light: B1 light with Y34R, R59Q
B14: GLS3000 R54E one-arm antibody (antibody, human IgG1, kappa, L234A L235A, N297A, name in Kabat numbering)
heavy: B1 heavy
chain: B1 chain
light: B1 light with Y34R, R59E
B15: GLS3000 S25V one-arm antibody (antibody, human IgG1, kappa, L234A L235A, N297A, name in Kabat numbering)
heavy: B1 heavy
chain: B1 chain
light: B1 light with S25V, Y34R
B16: GLS3000 S25A one-arm antibody (antibody, human IgG1, kappa, L234A L235A, N297A, name in Kabat numbering)
heavy: B1 heavy
chain: B1 chain
light: B1 light with S25A, Y34R
B17: GLS3000 S26E one-arm antibody (antibody, human IgG1, kappa, L234A L235A, N297A, name in Kabat numbering)
heavy: B1 heavy
chain: B1 chain
light: B1 light with S26E, Y34R
B18: GLS3000 S25M one-arm antibody (antibody, human IgG1, kappa, L234A L235A, N297A, name in Kabat numbering)
heavy: B1 heavy
chain: B1 chain
light: B1 light with S25M, Y34R
B19: GLS3000 S25I one-arm antibody (antibody, human IgG1, kappa, L234A L235A, N297A, name in Kabat numbering)
heavy: B1 heavy
chain: B1 chain
light: B1 light with S25I, Y34R
B20: GLS3000 R54W one-arm antibody (antibody, human IgG1, kappa, L234A L235A, N297A, name in Kabat numbering)
heavy: B1 heavy
chain: B1 chain
light: B1 light with Y34R, R59W
B21: GLS3000 S25D one-arm antibody (antibody, human IgG1, kappa, L234A L235A, N297A, name in Kabat numbering)
heavy: B1 heavy
chain: B1 chain
light: B1 light with S25D, Y34R
B22: GLS3000 S25E one-arm antibody (antibody, human IgG1, kappa, L234A L235A, N297A, name in Kabat numbering)
heavy: B1 heavy
chain: B1 chain
light: B1 light with S25E, Y34R
B23: GLS3000 R54P one-arm antibody (antibody, human IgG1, kappa, L234A L235A, N297A, name in Kabat numbering)
heavy: B1 heavy
chain: B1 chain
light: B1 light with Y34R, R59P

What follows are binders tested against T1, CD3ε homodimer protein (human, UniProt P07766 23-126, limits assumed) (assay: SPR Biacore T200, CD3ε homodimer on chip;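 further: Light-chain single-residue variant antibodies injected over amine-coupled CD3ε homodimer on a CM4 chip at 25 °C, bound amount divided by that of the GLS3000-containing antibody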).
T1 construct: also called CD3 (CD3ε)
T1 sequence (P07766 23-126 limits assumed): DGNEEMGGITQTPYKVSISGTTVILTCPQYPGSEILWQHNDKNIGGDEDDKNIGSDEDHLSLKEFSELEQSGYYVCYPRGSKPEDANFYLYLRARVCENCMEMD

Binder	ratio of amount bound vs unaltered GLS3000
B1	0.69
B2	0.67
B3	0.24
B4	0.92
B5	0.36
B6	0.83
B7	0.65
B8	0.78
B9	1.01
B10	0.79
B11	0.69
B12	0.86
B13	0.68
B14	0.58
B15	0.73
B16	0.92
B17	0.74
B18	0.31
B19	0.53
B20	0.78
B21	0.18
B22	0.21
B23	0.84
